Data reported in patent US20230406921A1.

What was measured:
[1] = molecular target: CD47 on the surface of tumor cells (human) (UniProt Q08722); experiment: FACS, SKOV-3 tumor cells, control antibody, 100 nM
[2] = molecular target: CD47 on the surface of human red blood cells (human) (UniProt Q08722); experiment: FACS, human red blood cells, control antibody, 1000 nM

Binding to tumor cells (MFI) [1]: 4640 MFI
Binding to human red blood cells (MFI) [2]: 797 MFI
Substance: human IgG4 (antibody)
